According to patent US20240400671A1 (LANIER BIOTHERAPEUTICS, published 2024):

Molecular target: T1, recombinant human IL-25 (R&D Systems) (human, UniProt Q9H293 33-177)
T1 sequence (looked up): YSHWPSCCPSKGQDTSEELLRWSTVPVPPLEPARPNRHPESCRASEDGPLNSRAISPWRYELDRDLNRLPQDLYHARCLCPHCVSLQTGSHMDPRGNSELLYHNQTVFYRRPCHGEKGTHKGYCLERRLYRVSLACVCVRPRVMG
Test: cell-based or functional assay

B1: hABM125.34 (antibody, V domains shown)
VH: QVTLKESGPTLVKPTQTLTLTCTFSGFSLSTSGMGVGWIRQPPGKALEWLAHIWWDDVKRYNPSLKSRLTITKDTSGSQVVLTMTNMDPVDTATYYCARTLPHFHDYWGQGTTLTVSS
VL: DIQMTQSPSTLSASVGDRVTITCRASSSVSYMYWYQQKPGKAPKPLIYRTSNLASGVPSRFSGSGSGTEYTLTISSLQPDDFATYYCKQYHSYPPTWTFGGGTKLEIKR
In the case of B1, the “IC50” value is reported as 0.22 µg/mL.

B2: ABM125 (Chimera) (antibody, V domains shown)
VH: QVTLKVSGPGILQPSQTLSLTCSFSGFSLNTSGMGVGWIRQPSGKGLEWLAHIWWDDVKRYNPALKSRLTISKDTSGSQVFLKIASVDTADTATYYCARTLPHFFDYWGQGTTLTVSS
VL: DIQMTQSPAIMSASPGEKVTISCRASSSVSYMYWYQQKSGSSPKPWIYRTSNLASGVPARFSGSGSGTSYSLTISSMEAEDAATYYCKQYHSYPPTWTFGGGTKLEIKR
modifications: N-glycosylation site in heavy chain CDR1 created by S29N, confirmed biophysically
B2 was tested, and the “IC50” value was 0.18 µg/mL.
